Source: IntAct's records for PubMed 16888620

Biological target: sgk3_human SGK3 (UniProt Q96BR1)
Sequence (Q96BR1 whole entry): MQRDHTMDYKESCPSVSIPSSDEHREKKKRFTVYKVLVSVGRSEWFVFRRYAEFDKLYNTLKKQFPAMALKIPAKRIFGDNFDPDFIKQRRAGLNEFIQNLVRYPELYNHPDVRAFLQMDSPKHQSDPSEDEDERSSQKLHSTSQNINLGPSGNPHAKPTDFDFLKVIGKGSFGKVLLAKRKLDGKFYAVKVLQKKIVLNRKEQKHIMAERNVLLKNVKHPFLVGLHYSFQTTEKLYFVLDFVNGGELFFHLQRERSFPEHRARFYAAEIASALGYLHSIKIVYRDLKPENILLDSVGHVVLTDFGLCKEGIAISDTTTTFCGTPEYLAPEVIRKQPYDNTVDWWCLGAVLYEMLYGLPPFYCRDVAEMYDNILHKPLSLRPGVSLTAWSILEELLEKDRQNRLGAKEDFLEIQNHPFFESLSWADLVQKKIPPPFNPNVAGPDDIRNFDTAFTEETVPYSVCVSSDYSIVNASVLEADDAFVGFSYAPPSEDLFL

Row | effect of a mutation on the interaction | Substance
1 | disrupting interaction strength | E3 ubiquitin-protein ligase Itchy homolog (Homo sapiens), Q96J02 S450A
2 | decreasing interaction strength | E3 ubiquitin-protein ligase Itchy homolog (Homo sapiens), Q96J02 T385A
